The target of test [1] is T1, murine IL-11 (mouse, UniProt P47873 22-199).
T1 construct: Invigate recombinant protein; biotinylated when immobilized in the Di-complex ELISA; also called mIL11; mIL-11
T1 sequence: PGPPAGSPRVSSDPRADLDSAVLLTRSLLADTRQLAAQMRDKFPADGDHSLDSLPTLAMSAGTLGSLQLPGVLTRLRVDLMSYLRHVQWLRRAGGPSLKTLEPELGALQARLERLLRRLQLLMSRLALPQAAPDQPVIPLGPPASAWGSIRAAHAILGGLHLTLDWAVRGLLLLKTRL
In words: Di-complex ELISA, canine IL11RA-hFc binding to immobilized mIL-11, competition. On the procedure:
(§1) In the Di-complex ELISA format anti IL-11 antibodies are tested for the ability to interfere with the formation of complexes consisting of immobilized murine IL-11 (Invigate, e.g., lot #C210819-09) or human IL-11 (Invigate, e.g., lot #C121021-19), and murine IL11RA-Fc fusion proteins or canine IL11RA-human-Fc fusion protein (FIG. 17a, b).
(§2) Bispecific antibodies were subjected to the experimental assay procedure described in Example 18 and IC50 [M], respectively efficacy (%) were calculated accordingly.
A general note: ELISA stands for enzyme-linked immunosorbent assay.

Test [2] addresses T1, murine IL-11. In words: Di-complex ELISA, murine IL11RA-Fc binding to immobilized mIL-11, competition. On the procedure: as §1, §2

B1: TPP-29603 (bispecific antibody, IgG1)
chain 1: QVQLVESGGGVVQPGRSLRLSCAASGFTFSHYDMHWVRQAPGKGLEWVAVISYHGSVKFYADSVKGRFTISRDNSKNTLYLQMNSLRAEDTAVYYCARTPGFHFDYWGQGTLVTVSSGGGGSGGGGSGGGGSQSVLTQPPSASGTPGQRVTISCSGSSSNIGSNYVSWYQQLPGTAPKLLIYYDDLRPSGVPDRFSGSKSGTSASLAISGLRSEDEADYYCSAWDDSLSGVVFGGGTKLTVLGGGGSGGGGSGGGGSGVECPPCPAPPVAGPSVFIFPPKPKDVLTITLTPKVTCVVVDISKDDPEVQFSWFVDDVEVHTAQTQPREEQFNSTFRSVSELPIMHQDWLNGKEFKCRVNSAAFPAPIEKTISKTKGRPKAPQVYTIPPCKEQMAKDKVSLWCMITDFFPEDITVEWQWNGQPAENYKNTQPIMDTDGSYFVYSKLNVQKSNWEAGNTFTCSVLHEGLHNHHTEKSLSHSPGK
chain 2: EVQLLESGGGLVQPGGSLRLSCAASGFTFSSYGMHWVRQAPGKGLEWVAVISYDGSYKYYADSVKGRFTISRDNSKNTLYLQMNSLRAEDTAVYYCAAGVPDYWGQGTLVTVSSGGGGSGGGGSGGGGSQSVLTQPPSASGTPGQRVTISCSGSSSNIGSDYDVHWYQQLPGTAPKLLIYSNEERPSGVPDRFSGSKSGTSASLAISGLRSEDEADYYCSAWDSSLSGPVFGGGTKLTVLGGGGSGGGGSGGGGSGVECPPCPAPPVAGPSVFIFPPKPKDVLTITLTPKVTCVVVDISKDDPEVQFSWFVDDVEVHTAQTQPREEQFNSTFRSVSELPIMHQDWLNGKEFKCRVNSAAFPAPIEKTISKTKGRPKAPQVCTIPPPKEQMAKDKVSLSCAITDFFPEDITVEWQWNGQPAENYKNTQPIMDTDGSYFVVSKLNVQKSNWEAGNTFTCSVLHEGLHNHHTEKSLSHSPGK
notes: scFv-kih-mIgG1; bispecific comprising CDRs of TPP-29528 and TPP-29519
A word on the IC50: it is the midpoint of a concentration-inhibition curve. B1 registered an IC50 with murine IL-11 [1] of 3.9 nM.

B2: TPP-29697 (bispecific antibody, IgG1)
chain 1: QVQLVESGGGVVQPGRSLRLSCAASGFTFSHYDMHWVRQAPGKGLEWVAVISYHGSVKFYADSVKGRFTISRDNSKNTLYLQMNSLRAEDTAVYYCARTPGFHFDYWGQGTLVTVSSGGGGSGGGGSGGGGSQSVLTQPPSASGTPGQRVTISCSGSSSNIGSNYVSWYQQLPGTAPKLLIYYDDLRPSGVPDRFSGSKSGTSASLAISGLRSEDEADYYCSAWDDSLSGVVFGGGTKLTVLGGGGSGGGGSGGGGSGVECPPCPAPPVAGPSVFLFPPKPKDTLMISRTPEVTCVVVGVSHEDPEVKFNWYVDGVEVHNAKTKPREEQYNSTYRVVSVLTVLHQDWLNGKEYKCKVSNKQLPSPIEKTISKAKGQPREPQVYTLPPCRDELTKNQVSLWCLVKGFYPSDIAVEWESNGQPENNYKTTPPVLDSDGSFFLYSKLTVDKSRWQQGNVFSCSVMHEALHNHYTQKSLSLSPGK
chain 2: EVQLLESGGGLVQPGGSLRLSCAASGFTFSSYGMHWVRQAPGKGLEWVAVISYDGSYKYYADSVKGRFTISRDNSKNTLYLQMNSLRAEDTAVYYCAAGVPDYWGQGTLVTVSSGGGGSGGGGSGGGGSQSVLTQPPSASGTPGQRVTISCSGSSSNIGSDYDVHWYQQLPGTAPKLLIYSNEERPSGVPDRFSGSKSGTSASLAISGLRSEDEADYYCSAWDSSLSGPVFGGGTKLTVLGGGGSGGGGSGGGGSGVECPPCPAPPVAGPSVFLFPPKPKDTLMISRTPEVTCVVVGVSHEDPEVKFNWYVDGVEVHNAKTKPREEQYNSTYRVVSVLTVLHQDWLNGKEYKCKVSNKQLPSPIEKTISKAKGQPREPQVCTLPPSRDELTKNQVSLSCAVKGFYPSDIAVEWESNGQPENNYKTTPPVLDSDGSFFLVSKLTVDKSRWQQGNVFSCSVMHEALHNHYTQKSLSLSPGK
notes: scFv-kih-hIgG1 with Fc-silencing mutations; bispecific comprising CDRs of TPP-29528 and TPP-29519
B2 yielded a 50% inhibitory concentration (IC50) with murine IL-11 [2] of 1.4 nM.

For the origin of these results see patent US20240317847A1 (Bayer, published 2024).
